Test results taken from patent US20110124572A1, “SYNDECAN-4 IS A REGULATOR OF RAC1-GTP” (priority 2008, published 2011).
Substitutions are numbered along the chain they refer to. “And” between values parts separate entries of the source, which are not always exact repeats. Equal values may be shown once. Blank lines part the entries; values can stand above or below the molecule they belong to.

Tests used:
Tiam-1 = target: T1, Tiam-1 (Homo sapiens, UniProt Q13009); experiment: Immunoprecipitation with anti-Tiam-1; assay type: binding; details: for Rac1 in the Tiam-1 precipitate: lysate of cells expressing the variant
T1 construct: we tested whether syndecan-4 can be co-immunoprecipitated by anti-Tiam-1; endogenous in cells; host or cells: MCF-7 lines expressing wt, Ser179Ala or Ser179Glu syndecan-4-GFP (RIPA lysates, GDP- or γ-S-GTP-saturated)
Procedure: In brief, 70% confluent cultures of 25 mL flask were detached, pelleted and following 2 times washing with PBS. The pellet were lysed in RIPA buffer then centrifuged and the supernatant was pre-cleared by addition of 5 μL of protein A/G-sepharose beads slurry (Pierce) for 2 hours, then the supernatant was incubated with the antibody of interest for 24 hours. 10 μL of protein A/G slurry was added for 2 hours, collected by pulse centrifugation, washed 3 times with lysis buffer, resuspended in 2×SDS loading buffer subjected to SDS-PAGE, followed by immunoblotting with the appropriate antibodies.
Since Tiam-1 is a Rac1-GEF (GTP exchange factor) and it could be pulled down by PAK-PKB (Mendoza-Naranjo et al., 2006) we tested whether syndecan-4 can be co-immunoprecipitated by anti-Tiam-1. The syndecan-4 chimeras were detected by anti-syndecan-4 and anti-GFP antisera at 55 kDa and 90 kDa length, which were correspondent to the monomer and dimmer forms, respectively. Because the co-sedimentation of syndecan-4 by PAK-PKB was GDP-GTP dependent we tested if the GDP or GTP had effect for the amount of the anti-Tiam-1-co-immunoprecipitated syndecan-4 forms.
PDZ domain of Tiam-1 was reported to bind peptides containing amino acid sequence of FYA (Songyang et al., 1997) that is part of the cytoplasmic segment of syndecan-4. Therefore syndecan-4 seemed a good candidate to interact with Tiam-1. In the immunoprecipitate of Tiam-1 syndecan-4 variants were detected by anti-syndecan-4 or anti-GFP antisera at 55 kDa length, which was correspondent to the monomer forms. There was no significant difference in the binding of Tiam-1 and syndecan-4 variants in the GDP or γ-S GTP saturated cases.
Considering that phospho-syndecan-4 down-regulates the Rac1 activity consequently Rac1 was also tested in the Tiam-1 precipitate to study the nature of inhibition. If the Rac1 activity were regulated by direct interaction of syndecan-4 we might expect a trapped intermedier as it was found in the case of Brefeldin A (Renault et al., 2003).

[1] = tested on: GTP-Rac/Cdc42-PAK complex; experiment: Pull-down of syndecan-4 by Rac1/CDC42-binding domain of PAK; design: species or system human; details: PAK-PKB pull-down, no γ-S GTP
Procedure: (§1) Rac1 activity was characterised by applying RAC-activation kit purchased from Millipore (Upstate) and it was used according to the manufacturer's prescription. Briefly, p21-binding domain of PAK-1 was fused to agarose beads, which specifically binds to and precipitates Rac-GTP and Cdc42-GTP from cell lysates. Cells were harvested at 70% confluency of 25 ml flasks. The wild type Syndecan-4, Ser179Ala and Ser179Glu cells were treated for 60 minutes with 1 μM PMA (Sigma-Aldrich), or 500 nM rottlerin (Sigma-Aldrich), or 10 nM Gö6976 (Biosource, Camarillo, Calif., USA). The active Rac1 was detected by Western blotting using mouse anti-Rac1 antibody (Upstate). To test whether GST-Pak1-Rac/Cdc42-binding domain could pull syndecan-4 down, the blot was probed with rabbit polyclonal anti-syndecan-4 or mouse monoclonal anti-GFP antibody.
We tested whether the protein complex pulled down with the Rac1/CDC 42-binding domain of PAK (PAK-PKB) used in the Rac1 assay contained syndecan-4. Parallel filter of the Rac1 assay was probed with anti-syndecan-4 or anti-GFP antisera. The syndecan-4-GFP monomers migrating with 55 kDa relative electrophoretic mobility gave strong signals (FIG. 6). The amount of pulled-down syndecan-4 was in accordance with Rac1 level detected in the different syndecan-4 constructs (FIG. 6). […] When γ-S GTP was applied to the cell lysates to equalize the pulled-down Rac1-GTP level there was no difference in the amount of pulled-down syndecan-4 variants (FIG. 6). So, the affinity of the different syndecan-4 mutants is the same to the GTP-Rac/Cdc42-PAK complex. […]
We tested syndecan-4 whether it was pulled down by the Rac1/CDC 42-binding domain of PAK (PAK-PKB) used in the Rac1 assay. The syndecan-4-GFP monomers were detected as a 55 kDa relative electrophoretic mobility band probed with anti-syndecan-4 or anti-GFP antisera. […] The amount of pulled-down syndecan-4 was in accordance with Rac1 level detected in the different syndecan-4 constructs (FIG. 6). […]

MCF-7 cells [2] = experiment: Cell migration assay (time-lapse) on fibronectin; assay type: cell-based, human; details: MCF-7 line expressing the syndecan-4 variant, fibronectin
Procedure: (§2) The MCF-7 breast adenocarcinoma cells were obtained from ATCC, cultured in DMEM:F12 (Cambrex, Walkersville, Md., USA) supplemented with 10% fetal bovine serum (FBS) (Gibco, Bethesda, Md., USA), otherwise stated. The stably transfected cell lines were propagated in DMEM:F12 medium supplemented with 10% FBS and 200 μg/ml G418 (Cambrex, Walkersville, Md., USA). The cell lines were seeded onto glass coverslips or plastic dishes coated for 2 h with 10 μg/ml fibronectin (Sigma-Aldrich, St. Louis, Mo., USA). Scratch-wound assays were performed on stable transfected Syndecan-4 wild, Ser179Ala and Ser179Glu cells at 80% confluency. The cultures were scratched with a sterile P10 pipette tip 3-4 times in parallel lines. Images were taken 12, 24, 36 and 48 h following wounding.
In the cell migration assay 60% confluent MCF7 cells or the stably transfected lines were stimulated by 1 μM phorbol-12-myristate-13-acetate (PMA; from Sigma-Aldrich St. Louis, Mo., USA), otherwise stated. The images were taken using 10×, 20×0.3 objective at 3-min intervals for 2 h using inverted microscope (Leica) and organized into time-lapse movies in Adobe ImageReady® v. 8.
Results of the previous scratch-wound assay gave a hint that the Ser179Glu cells gained a migratory phenotype. […]

MCF-7 cells [3] = experiment: Scratch-wound assay; assay type: cell-based, human; details: for time to closure of the scratch gap: fibronectin, scratched at 80% confluence
Procedure: as §2
The wt-syndecan-4, Ser179Ala, and Ser179Glu lines were tested how they close the scratched wound on fibronectin substratum. At 80% confluence the cultures were scratch-wounded and healing was monitored. Still images were captured at the indicated time points (FIG. 1). In monolayers of the wt-syndecan-4 and the Ser179Ala lines the wounds healed from the edges, i.e. progenies of cell division narrowed the scratch but kept tight contact with the cell layer. […] The gaps closed in every case almost at the same time, in 42 hour. There was no difference in the growth rate of the different lines measured by SRB assay (data not shown).

Rac1 = Rac1 GTPase pulldown assay (Rac1-GTP level); assay type: cell-based, human; details: for relative Rac1-GTP level: relative to non-treated wt-syndecan-4; for reduction of activated Rac1 (GTP-Rac1) level: Gö6976 treatment
Procedure: as §1

T1 sequence (Q13009 whole entry): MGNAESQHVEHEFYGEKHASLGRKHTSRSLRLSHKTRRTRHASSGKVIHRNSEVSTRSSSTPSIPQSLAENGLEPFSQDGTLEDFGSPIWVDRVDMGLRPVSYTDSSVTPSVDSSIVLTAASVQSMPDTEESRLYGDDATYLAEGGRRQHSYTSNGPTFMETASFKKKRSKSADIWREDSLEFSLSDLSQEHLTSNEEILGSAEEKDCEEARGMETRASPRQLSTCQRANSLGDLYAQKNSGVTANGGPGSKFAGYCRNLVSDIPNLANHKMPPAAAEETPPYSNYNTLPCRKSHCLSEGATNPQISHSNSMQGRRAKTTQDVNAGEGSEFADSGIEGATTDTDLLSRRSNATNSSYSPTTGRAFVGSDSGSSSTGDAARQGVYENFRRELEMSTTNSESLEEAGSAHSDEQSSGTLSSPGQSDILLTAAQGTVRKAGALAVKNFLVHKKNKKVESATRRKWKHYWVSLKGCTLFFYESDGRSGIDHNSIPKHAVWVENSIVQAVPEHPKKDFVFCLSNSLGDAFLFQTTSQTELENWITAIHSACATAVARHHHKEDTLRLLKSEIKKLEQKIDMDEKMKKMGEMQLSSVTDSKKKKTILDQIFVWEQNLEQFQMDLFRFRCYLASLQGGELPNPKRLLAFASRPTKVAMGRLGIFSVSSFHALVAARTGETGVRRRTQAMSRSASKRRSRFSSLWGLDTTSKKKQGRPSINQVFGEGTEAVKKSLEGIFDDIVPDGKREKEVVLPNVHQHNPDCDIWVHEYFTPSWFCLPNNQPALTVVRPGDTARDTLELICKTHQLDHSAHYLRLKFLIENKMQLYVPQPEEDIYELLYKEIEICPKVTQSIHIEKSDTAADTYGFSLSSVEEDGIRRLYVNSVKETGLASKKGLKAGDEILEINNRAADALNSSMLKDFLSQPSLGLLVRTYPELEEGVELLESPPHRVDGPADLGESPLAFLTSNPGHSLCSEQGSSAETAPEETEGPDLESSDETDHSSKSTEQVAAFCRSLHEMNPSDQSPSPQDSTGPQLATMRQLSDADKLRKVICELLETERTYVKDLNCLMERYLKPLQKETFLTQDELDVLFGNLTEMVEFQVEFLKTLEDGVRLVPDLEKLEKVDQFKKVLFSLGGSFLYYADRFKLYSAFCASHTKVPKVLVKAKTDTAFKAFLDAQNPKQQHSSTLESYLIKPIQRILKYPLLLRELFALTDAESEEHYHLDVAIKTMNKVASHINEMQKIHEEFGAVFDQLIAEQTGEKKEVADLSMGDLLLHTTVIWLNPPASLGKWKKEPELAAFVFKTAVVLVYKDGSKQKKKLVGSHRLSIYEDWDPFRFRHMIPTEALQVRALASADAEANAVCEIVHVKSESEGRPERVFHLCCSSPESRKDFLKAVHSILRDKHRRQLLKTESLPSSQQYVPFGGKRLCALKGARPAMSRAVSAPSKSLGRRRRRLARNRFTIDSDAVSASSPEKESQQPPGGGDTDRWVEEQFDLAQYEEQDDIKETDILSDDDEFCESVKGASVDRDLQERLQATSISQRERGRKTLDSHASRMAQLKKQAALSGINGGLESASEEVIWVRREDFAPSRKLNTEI

syndecan-4 form co-immunoprecipitated by anti-Tiam-1 (Tiam-1; cell lysate saturated by GDP): dominant
Rac1 in the Tiam-1 precipitate (Tiam-1): observed
amount of pulled-down syndecan-4, less than from the Ser179Ala line [1]: approximately 20%
relative Rac1-GTP level (Rac1; 10 nM Gö6976 60 min): 0.25 ± 0.03
relative Rac1-GTP level (Rac1; 1 μM PMA 60 min): 0.25 and 0.25 ± 0.05
reduction of activated Rac1 (GTP-Rac1) level (Rac1): 4.2±0.4 fold
relative Rac1-GTP level (Rac1; nt (non-treated)): 1
B1: wt-syndecan-4: human syndecan-4 with GFP inserted at position 131, stably expressed in MCF-7 cells (protein)
chain: ESIRETEVIDPQDLLEGRYFSGALPDDEDVVGPGQESDDFELSGSGDLDDLEDSMIGPEVVHPLVPLDNHIPERAGSGSQVPTEPKKLEENEVIPKRISPVEESEDVSNKVSMSSTVQGSNIFERTEVLAALIVGGIVGILFAVFLILLLMYRMKKKDEGSYDLGKKPIYKKAPTNEFYA
modifications: left off: large carriers
notes: human syndecan-4 with GFP inserted at position 131, stably expressed in MCF-7 cells
migration (MCF-7 cells [2]; 1 μM PMA): 0.3±0.1 μm/min and 0.3 μm/min
time to closure of the scratch gap (MCF-7 cells [3]): 42 h

syndecan-4 form co-immunoprecipitated by anti-Tiam-1 (Tiam-1; cell lysate saturated by GDP): dominant
Rac1 in the Tiam-1 precipitate (Tiam-1): observed
amount of pulled-down syndecan-4, more than the wt-syndecan-4 [1]: approximately 20%
relative Rac1-GTP level (Rac1; 10 nM Gö6976 60 min): 1±0.1 and 1 ± 0.01
relative Rac1-GTP level (Rac1; 1 μM PMA 60 min): 0.46 ± 0.05
relative Rac1-GTP level (Rac1; nt (non-treated)): 1.9±0.15
B2: Ser179Ala: phosphodefective Ser179 to Ala mutant of human syndecan-4-GFP, expressed in MCF-7 cells (protein, UniProt P31431 19-198, looked up, variant S179A)
Syndecan-4: B1 chain with S161A
modifications: GFP inserted at position 131
notes: phosphodefective Ser179 to Ala mutant of human syndecan-4-GFP, expressed in MCF-7 cells
time to closure of the scratch gap (MCF-7 cells [3]): 42 h

syndecan-4 form co-immunoprecipitated by anti-Tiam-1 (Tiam-1; γ-S GTP saturated lysate): detected abundantly
amount of pulled-down syndecan-4 [1]: hardly detectable
relative Rac1-GTP level (Rac1; 10 nM Gö6976 60 min): 0.06 ± 0.02
relative Rac1-GTP level (Rac1; 1 μM PMA 60 min): 0.9±0.2 and 0.95 ± 0.06
reduction of activated Rac1 (GTP-Rac1) level (Rac1): 16±2 fold
decrease of the Rac1-GTP level (Rac1; expression of the variant, untreated): 1.5 fold
relative Rac1-GTP level (Rac1; nt (non-treated)): 0.6±0.1
B3: Ser179Glu: phosphomimetic Ser179 to Glu mutant of human syndecan-4-GFP, expressed in MCF-7 cells (protein, UniProt P31431 19-198, looked up, variant S179E)
Syndecan-4: B1 chain with S161E
modifications: GFP inserted at position 131
notes: phosphomimetic Ser179 to Glu mutant of human syndecan-4-GFP, expressed in MCF-7 cells
migration (MCF-7 cells [2]; nt (non-treated)): 0.4±0.1 μm/min
cell motility in the scratched area (MCF-7 cells [3]; by 12 hours following wounding): enhanced cell motility
time to closure of the scratch gap (MCF-7 cells [3]): 42 h
